This note sets out measurements from US20140087995A1 (published 2014).

Experiment [1] addresses T1, human calcitonin receptor (human, UniProt P30988 25-474).
T1 construct: whole, on cells; Membranes of a BHK tk'ts 13 cell line stably transfected with the human calcitonin receptor; also called hCTR; hCT
T1 sequence (looked up): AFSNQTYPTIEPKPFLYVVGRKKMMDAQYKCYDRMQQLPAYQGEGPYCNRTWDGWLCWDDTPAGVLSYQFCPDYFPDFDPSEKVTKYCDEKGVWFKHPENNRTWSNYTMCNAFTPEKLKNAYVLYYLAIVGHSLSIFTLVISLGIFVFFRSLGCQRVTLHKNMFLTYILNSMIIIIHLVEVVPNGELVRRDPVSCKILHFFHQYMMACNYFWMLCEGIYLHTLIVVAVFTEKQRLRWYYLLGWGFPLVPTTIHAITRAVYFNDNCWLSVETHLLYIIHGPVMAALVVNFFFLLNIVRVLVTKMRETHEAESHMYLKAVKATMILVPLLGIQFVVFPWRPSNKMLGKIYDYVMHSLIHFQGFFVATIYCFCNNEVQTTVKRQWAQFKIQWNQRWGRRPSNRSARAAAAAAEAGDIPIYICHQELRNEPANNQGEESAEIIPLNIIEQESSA
The experiment can be described thus: IC50 at hCTR divided by IC50 at hAmylin-R (reference). On the procedure:
The resulting pellet was resuspended, homogenized and centrifuged (20.000 rpm, 15 min) in a buffer containing 20 mM Na-HEPES and 0.1 mM EDTA (pH 7.4, buffer 2). The resulting pellet was resuspended in buffer 2 and protein concentration was measured (BCA protein Assay, Pierce). The homogenate was kept cold during the whole procedure. The membranes were kept at −80° C. until use. The assay was performed in a 384 well Optiplate (PerkinElmer) in a total volume of 40 ul. Membranes were mixed with SPA beads. Final concentration of membranes 35 ng/μL final and SPA beads was 0.05 mg/well. Test-compounds were dissolved in DMSO and further diluted in assay buffer (50 mM Hepes, pH 7.4, 1 mM CaCl2, 5 mM MgCl₂, 0.1% OA and 0.02% Tween20). […] The final mixture was incubated with shaking at 400 rpm for 120 min at 25° C. prior to centrifugation (1500 rpm, 10 min). Samples were analyzed on TopCounter™ (Packard). The IC₅₀ was calculated using (one site binding competition analysis) GraphPad Prism5 as a measure of receptor affinity.
Membranes were prepared in the following way; the cells were rinsed with PBS and incubated with Versene for approximately 5 min before harvesting. The cells were flushed with PBS and the cell-suspension was centrifuged for 5 min at 1000 rpm. Cells were homogenized (Ultrathurrax) in a buffer containing 20 mM Na-HEPES and 10 mM EDTA (pH 7.4) and centrifuged at 20.000 rpm for 15 min. The resulting pellet was resuspended, homogenized and centrifuged (20.000 rpm, 15 min) in a buffer containing 20 mM Na-HEPES and 0.1 mM EDTA (pH 7.4, buffer 2). The resulting pellet was resuspended in buffer 2 and protein concentration was measured (BCA protein Assay, Pierce). The homogenate was kept cold during the whole procedure. The membranes were kept at −80° C. until use. Assay was performed in a 384 well Optiplate (PerkinElmer) in a total volume of 40 ul. Membranes were mixed with SPA beads.

Experiment [2] has as its target T2, rat calcitonin receptor (rat, UniProt P32214 25-516).
T2 construct: whole, on cells; Membranes of BHK tk'ts 13 cells transiently transfected with the rat calcitonin receptor; also called rCTR; rat calcitonin (a) receptor
T2 sequence (looked up): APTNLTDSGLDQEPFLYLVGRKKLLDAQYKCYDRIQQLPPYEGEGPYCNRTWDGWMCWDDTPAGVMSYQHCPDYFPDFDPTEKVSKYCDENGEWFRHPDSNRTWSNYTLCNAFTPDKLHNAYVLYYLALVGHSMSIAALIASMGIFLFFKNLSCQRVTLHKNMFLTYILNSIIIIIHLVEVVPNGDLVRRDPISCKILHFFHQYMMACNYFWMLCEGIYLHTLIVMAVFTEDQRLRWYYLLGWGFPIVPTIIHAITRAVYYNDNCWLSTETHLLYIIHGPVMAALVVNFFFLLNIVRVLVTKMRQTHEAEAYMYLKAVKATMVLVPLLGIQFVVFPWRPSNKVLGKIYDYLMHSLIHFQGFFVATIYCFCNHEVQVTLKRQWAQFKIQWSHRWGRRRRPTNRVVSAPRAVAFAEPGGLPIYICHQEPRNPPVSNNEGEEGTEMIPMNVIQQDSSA
The experiment can be described thus: IC50 at rCTR divided by IC50 at rAmylin-R (reference).

Experiment [3] has as its target T2, rat calcitonin receptor. The experiment can be described thus: SPA competition vs 125I-calcitonin, membranes with rat CTR (Assay VIII).
For experiment [4], the target named is T3, rat amylin receptor (rat calcitonin receptor + rat RAMP 3) (rat, UniProt P32214 25-516; Q9JJ73 23-147).
T3 construct: whole, on cells; Membranes of BHK tk'ts 13 cells transiently transfected with the rat calcitonin receptor and rat RAMP 3; also called rAmylin-R; rat amylin 3(a) receptor
T3 sequence (looked up) 1: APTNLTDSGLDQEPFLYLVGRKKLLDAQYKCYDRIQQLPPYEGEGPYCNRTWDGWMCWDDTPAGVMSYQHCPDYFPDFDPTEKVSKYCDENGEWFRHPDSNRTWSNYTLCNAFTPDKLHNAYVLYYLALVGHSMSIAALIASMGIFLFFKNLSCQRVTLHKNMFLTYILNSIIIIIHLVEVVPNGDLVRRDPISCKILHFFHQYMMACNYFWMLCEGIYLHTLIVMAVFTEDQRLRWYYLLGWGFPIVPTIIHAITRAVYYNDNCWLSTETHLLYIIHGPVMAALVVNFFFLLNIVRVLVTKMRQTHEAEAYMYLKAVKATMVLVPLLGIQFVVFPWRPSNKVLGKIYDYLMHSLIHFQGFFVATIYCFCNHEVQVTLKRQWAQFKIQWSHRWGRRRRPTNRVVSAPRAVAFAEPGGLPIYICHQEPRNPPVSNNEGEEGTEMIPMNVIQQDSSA
T3 sequence (looked up) 2: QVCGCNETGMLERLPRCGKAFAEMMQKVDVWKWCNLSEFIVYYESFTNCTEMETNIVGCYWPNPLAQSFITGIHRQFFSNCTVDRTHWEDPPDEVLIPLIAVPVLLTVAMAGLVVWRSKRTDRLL
The experiment can be described thus: SPA competition vs 125I-rat amylin, membranes with rat CTR + rat RAMP3 (Assay VI). The method, then: The binding assay was performed using scintillation proximity assay (SPA) beads (RPNQ0001) from PerkinElmer and cell membranes from the Amylin 3(a)/CRE-luc cells (as described in Assay (II)) were used. Membranes were prepared in the following way; the cells were rinsed with PBS and incubated with Versene for approximately 5 min before harvesting. The cells were flushed with PBS and the cell-suspension was centrifuged for 5 min at 1000 rpm. Cells were homogenized (ultrathurrax) in a buffer containing 20 mM Na-HEPES and 10 mM EDTA (pH 7.4) and centrifuged at 20.000 rpm for 15 min. The resulting pellet was resuspended, homogenized and centrifuged (20.000 rpm, 15 min) in a buffer containing 20 mM Na-HEPES and 0.1 mM EDTA (pH 7.4, buffer 2). The resulting pellet was resuspended in buffer 2 and protein concentration was measured (BCA protein Assay, Pierce). The homogenate was kept cold during the whole procedure. The membranes were kept at −80° C. until use. The assay was performed in a 384 well Optiplate (PerkinElmer) in a total volume of 40 ul. Membranes were mixed with SPA beads. Final concentration of membranes 35 ng/μL final and SPA beads was 0.05 mg/well. Test-compounds were dissolved in DMSO and further diluted in assay buffer (50 mM Hepes, pH 7.4, 1 mM CaCl2, 5 mM MgCl₂, 0.1% OA and 0.02% Tween20). […] The final mixture was incubated with shaking at 400 rpm for 120 min at 25° C. prior to centrifugation (1500 rpm, 10 min). Samples were analyzed on TopCounter™ (Packard). The IC₅₀ was calculated using (one site binding competition analysis) GraphPad Prism5 as a measure of receptor affinity.
Cells were grown in DMEM with 10% FBS and 1% Pen/Strep. Approximately 48 hours after transfection, the cells were harvested and membranes were prepared.

Numbered stars: 1 amine (or outer) side, 2 acyl side, 3 side chain; on linkers, the order of the positions; unused ones are H or OH. Bridge positions count the residues as written; N and C are the ends. * marks the point of attachment. C20 diacid = O=C(O)CCCCCCCCCCCCCCCCCCC(=O)*; γGlu = O=C(O)[C@H](CCC(=O)[*:2])N[*:1]

B1: N^α1-[(4S)-4-carboxy-4-(19-carboxynonadecanoylamino)butanoyl]-[Glu14,Arg17,Pro21,Pro25,Pro28,Pro29]-h-amylin (peptide)
peptide: {C20 diacid-γGlu}-KCNTATCATQRLAEFLRHSSPNFGPILPPTNVGSNTY-NH2
modifications: disulfide 2-7
SMILES: CC[C@H](C)[C@H](NC(=O)[C@@H]1CCCN1C(=O)CNC(=O)[C@H](Cc1ccccc1)NC(=O)[C@H](CC(N)=O)NC(=O)[C@@H]1CCCN1C(=O)[C@H](CO)NC(=O)[C@H](CO)NC(=O)[C@H](Cc1c[nH]cn1)NC(=O)[C@H](CCCNC(=N)N)NC(=O)[C@H](CC(C)C)NC(=O)[C@H](Cc1ccccc1)NC(=O)[C@H](CCC(=O)O)NC(=O)[C@H](C)NC(=O)[C@H](CC(C)C)NC(=O)[C@H](CCCNC(=N)N)NC(=O)[C@H](CCC(N)=O)NC(=O)[C@@H](NC(=O)[C@H](C)NC(=O)[C@@H]1CSSC[C@H](NC(=O)[C@H](CCCCN)NC(=O)CC[C@H](NC(=O)CCCCCCCCCCCCCCCCCCC(=O)O)C(=O)O)C(=O)N[C@@H](CC(N)=O)C(=O)N[C@@H]([C@@H](C)O)C(=O)N[C@@H](C)C(=O)N[C@@H]([C@@H](C)O)C(=O)N1)[C@@H](C)O)C(=O)N[C@@H](CC(C)C)C(=O)N1CCC[C@H]1C(=O)N1CCC[C@H]1C(=O)N[C@H](C(=O)N[C@@H](CC(N)=O)C(=O)N[C@H](C(=O)NCC(=O)N[C@@H](CO)C(=O)N[C@@H](CC(N)=O)C(=O)N[C@H](C(=O)N[C@@H](Cc1ccc(O)cc1)C(N)=O)[C@@H](C)O)C(C)C)[C@@H](C)O
notes: modifications are with respect to human amylin; also called compound 6
B1: the “Ratio hCT/hAmylin binding” value in experiment [1] amounted to 20. In experiment [2], the “Ratio rCT/rAmylin binding” value came out at 21.7. Besides, the IC50 stood at 51.5 nM in experiment [3] and 2.37 nM in experiment [4].

B2: N^α1-[(4S)-4-carboxy-4-(19-carboxynonadecanoylamino)butanoyl]-[Glu14,Arg17,Pro21,Pro26]-h-amylin (peptide)
peptide: {C20 diacid-γGlu}-KCNTATCATQRLAEFLRHSSPNFGAPLSSTNVGSNTY-NH2
modifications: disulfide 2-7
SMILES: CC(C)C[C@H](NC(=O)[C@H](CCCNC(=N)N)NC(=O)[C@H](CCC(N)=O)NC(=O)[C@@H](NC(=O)[C@H](C)NC(=O)[C@@H]1CSSC[C@H](NC(=O)[C@H](CCCCN)NC(=O)CC[C@H](NC(=O)CCCCCCCCCCCCCCCCCCC(=O)O)C(=O)O)C(=O)N[C@@H](CC(N)=O)C(=O)N[C@@H]([C@@H](C)O)C(=O)N[C@@H](C)C(=O)N[C@@H]([C@@H](C)O)C(=O)N1)[C@@H](C)O)C(=O)N[C@@H](C)C(=O)N[C@@H](CCC(=O)O)C(=O)N[C@@H](Cc1ccccc1)C(=O)N[C@@H](CC(C)C)C(=O)N[C@@H](CCCNC(=N)N)C(=O)N[C@@H](Cc1c[nH]cn1)C(=O)N[C@@H](CO)C(=O)N[C@@H](CO)C(=O)N1CCC[C@H]1C(=O)N[C@@H](CC(N)=O)C(=O)N[C@@H](Cc1ccccc1)C(=O)NCC(=O)N[C@@H](C)C(=O)N1CCC[C@H]1C(=O)N[C@@H](CC(C)C)C(=O)N[C@@H](CO)C(=O)N[C@@H](CO)C(=O)N[C@H](C(=O)N[C@@H](CC(N)=O)C(=O)N[C@H](C(=O)NCC(=O)N[C@@H](CO)C(=O)N[C@@H](CC(N)=O)C(=O)N[C@H](C(=O)N[C@@H](Cc1ccc(O)cc1)C(N)=O)[C@@H](C)O)C(C)C)[C@@H](C)O
notes: modifications are with respect to human amylin; also called compound 7
As to B2, the “Ratio hCT/hAmylin binding” value in experiment [1] worked out at 16.5. The “Ratio rCT/rAmylin binding” value in experiment [2] worked out at 42. Also, the IC50 was 47.2 nM in experiment [3] and 1.12 nM in experiment [4].

B3: N^α1-[(4S)-4-carboxy-4-(19-carboxynonadecanoylamino)butanoyl]-[Glu14,Arg17,Pro21,Pro27,Arg35]-h-amylin (peptide)
peptide: {C20 diacid-γGlu}-KCNTATCATQRLAEFLRHSSPNFGAIPSSTNVGSRTY-NH2
modifications: disulfide 2-7
SMILES: CC[C@H](C)[C@H](NC(=O)[C@H](C)NC(=O)CNC(=O)[C@H](Cc1ccccc1)NC(=O)[C@H](CC(N)=O)NC(=O)[C@@H]1CCCN1C(=O)[C@H](CO)NC(=O)[C@H](CO)NC(=O)[C@H](Cc1c[nH]cn1)NC(=O)[C@H](CCCNC(=N)N)NC(=O)[C@H](CC(C)C)NC(=O)[C@H](Cc1ccccc1)NC(=O)[C@H](CCC(=O)O)NC(=O)[C@H](C)NC(=O)[C@H](CC(C)C)NC(=O)[C@H](CCCNC(=N)N)NC(=O)[C@H](CCC(N)=O)NC(=O)[C@@H](NC(=O)[C@H](C)NC(=O)[C@@H]1CSSC[C@H](NC(=O)[C@H](CCCCN)NC(=O)CC[C@H](NC(=O)CCCCCCCCCCCCCCCCCCC(=O)O)C(=O)O)C(=O)N[C@@H](CC(N)=O)C(=O)N[C@@H]([C@@H](C)O)C(=O)N[C@@H](C)C(=O)N[C@@H]([C@@H](C)O)C(=O)N1)[C@@H](C)O)C(=O)N1CCC[C@H]1C(=O)N[C@@H](CO)C(=O)N[C@@H](CO)C(=O)N[C@H](C(=O)N[C@@H](CC(N)=O)C(=O)N[C@H](C(=O)NCC(=O)N[C@@H](CO)C(=O)N[C@@H](CCCNC(=N)N)C(=O)N[C@H](C(=O)N[C@@H](Cc1ccc(O)cc1)C(N)=O)[C@@H](C)O)C(C)C)[C@@H](C)O
notes: modifications are with respect to human amylin; also called compound 16
For the molecule B3, the “Ratio hCT/hAmylin binding” value in experiment [1] worked out at 19.1. The “Ratio rCT/rAmylin binding” value in experiment [2] stood at 45.6. The IC50 in experiment [3] was 55.2 nM; in experiment [4] it was 1.21 nM.

What is called IC50 is the concentration needed to halve the response being measured.
